The labels stand for the following.
B1: HDV Ribozyme (parent)
chain: GGCCGGCAUGGUCCCAGCCUCCUCGCUGGCGCCGGCUGGGCAACAUUCCGAGGGGACCGUCCCCUCGGUAAUGGCGAAUGGGACCCA

In this data set the parent is B1. The experiment in a line: self-cleavage, relative activity (ratio to wild type); higher = more cleavage; co-transcriptional.
Consider G25A U60A, for which the self-cleavage turned out to be 0.295.
Regarding G1A A71C, the self-cleavage worked out at 0.145.
Consider C18U G35C, for which the self-cleavage was 0.119.
The figure for C33U G73A is 0.554; for C41U G52C it is 0.819; for G31U G74U it is 0.136.
For G55A G76A, the self-cleavage was 1.
Consider C49U G54A, for which the self-cleavage was 1.02.
Regarding G28A G35A, the self-cleavage worked out at 0.0608.
Consider U37A C61G, for which the self-cleavage was 0.151.
In the case of G50A A78U, the self-cleavage is 0.4.
On to C33U G35U, for which the self-cleavage came to 0.383.
The figure for G34C C86A is 0.13.
The same measure for G28A G34C: 0.0536; for C44G G73U: 0.397; for G10A C19U: 0.0326.
Consider C3A C62A, for which the self-cleavage turned out to be 0.511.
The same measure for C33G C66G: 0.122; for C48U C64U: 0.997.
As to G31A G40A, the self-cleavage stood at 0.233.
In the case of G73C A78G, the self-cleavage amounted to 0.237.
A42U G82A: the self-cleavage worked out at 0.157.
For the variant G1C G76C, the self-cleavage was 0.237.
The same measure for C32G G73U: 0.0692; for G34U A78G: 0.111.
On to C22G G82C, for which the self-cleavage was 0.0378.
G17C C86G: the self-cleavage was found to be 0.131.
On to G10U U79A, for which the self-cleavage was found to be 0.352.
In the case of A51G G55U, the self-cleavage came out at 1.06.
With G2A C84G, the self-cleavage turned out to be 0.0391.
Take C33G U65G: the self-cleavage was determined as 0.222.
For the variant G39C G80U, the self-cleavage is 0.101.
As to U20G U69G, the self-cleavage came to 0.0831.
With A71G C86U, the self-cleavage turned out to be 0.665.
C61U C64U: the self-cleavage is 1.2.
On to C7G U65G, for which the self-cleavage was 0.199.
The figure for C15U C30G is 0.0707; for A51U U60G it is 1.04.
Turning to C18A C26G, the self-cleavage was 0.119.
The same measure for U23G C26G: 0.831; for C21G A83C: 0.
Turning to C30G U72A, the self-cleavage came to 0.0536.
For the variant G17U C33A, the self-cleavage was determined as 0.143.
Turning to G29U G38A, the self-cleavage was 0.0656.
For the variant G38U A56G, the self-cleavage was 0.193.
The same measure for A16G G25U: 0.0875; for G34U C84G: 0.161.
Regarding G11U G31U, the self-cleavage stood at 0.129.
In the case of C18G G73U, the self-cleavage came to 0.119.
For G10A C36G, the self-cleavage is 0.101.
G74C A78U: the self-cleavage was determined as 0.332.
With G10A G76A, the self-cleavage was 1.04.
With A77G G80C, the self-cleavage was found to be 0.0437.
With G54C G80A, the self-cleavage turned out to be 0.362.
Regarding C13A A45G, the self-cleavage came out at 0.158.
Consider G17C G52C, for which the self-cleavage amounted to 0.19.
Take U46G A71U: the self-cleavage amounted to 0.731.
For the variant G31C G39C, the self-cleavage worked out at 0.0475.
C57A A83C: the self-cleavage was determined as 0.684.
G5A G59U: the self-cleavage is 0.222.
Regarding A16G G31A, the self-cleavage was determined as 0.46.
G34U: the self-cleavage came to 0.19.
U9C G34U: the self-cleavage was 0.178.
The same measure for C24A G68A: 0.678; for G50U G82A: 0.499.
The same measure for G28U C64G: 0.102; for G50C C58G: 0.796.
In the case of G11C A45G, the self-cleavage amounted to 0.249.
In the case of C32U C86G, the self-cleavage turned out to be 0.739.
The figure for C22G G34U is 0.0627; for G1C C48G it is 0.346; for G39C A51U it is 0.219.
For U27C C58G, the self-cleavage amounted to 0.7.
Turning to A56C U65A, the self-cleavage was 0.955.
With C41U C57A, the self-cleavage was determined as 0.986.
The same measure for A16G C86G: 1.2.
For the variant G5A C44A, the self-cleavage worked out at 0.
In the case of U37C G68A, the self-cleavage was 0.864.
The same measure for A43G G54U: 0.514; for G55C A70G: 0.848; for C32A A77U: 0.108.
Turning to A8U G35C, the self-cleavage turned out to be 0.0639.
As for U37C G82A, the self-cleavage was 0.173.
C36G C62A: the self-cleavage amounted to 0.0791.
As for C7A A43C, the self-cleavage was 0.0923.
The same measure for G5U G25U: 0.
The same measure for C21A U27G: 0.0639; for C22A U37G: 0.0462; for A45C C66G: 0.587.
On to C21U A78C, for which the self-cleavage is 0.058.
Take G2C U37G: the self-cleavage was 0.
As to G67U C86A, the self-cleavage stood at 1.
As for G38U G76U, the self-cleavage was determined as 0.237.
As for U79G C84U, the self-cleavage is 0.554.
With U27A G76A, the self-cleavage worked out at 0.997.
As for G29U A56U, the self-cleavage was determined as 0.109.
Regarding A8U G10C, the self-cleavage came out at 0.639.
Consider G38U C41G, for which the self-cleavage worked out at 0.325.
On to G6C C44G, for which the self-cleavage turned out to be 0.0692.
Regarding G10A U20C, the self-cleavage amounted to 0.0234.
Consider G34C G81C, for which the self-cleavage was found to be 0.115.
The same measure for G17A C86U: 0.885; for C3A G74C: 0.0369; for C14A G82U: 0.665.
U37C C61A: the self-cleavage worked out at 1.2.
For A51U A70C, the self-cleavage was 0.886.
Take G53C C58G: the self-cleavage amounted to 1.
With G53A C75A, the self-cleavage stood at 0.225.
G11U U27G: the self-cleavage amounted to 0.353.
In the case of C19U G28A, the self-cleavage stood at 0.956.
On to C44A C84U, for which the self-cleavage is 0.431.
The same measure for A42G U72A: 0.369; for A8C G39A: 0.151.
Take C21A A70G: the self-cleavage was 0.
Consider C84G C85U, for which the self-cleavage is 0.719.
Turning to A8U G40A, the self-cleavage came out at 0.892.
Turning to G31C U37G, the self-cleavage was 0.214.
Turning to C22A G39U, the self-cleavage amounted to 0.166.
The same measure for C18U C41U: 0.49.
As for C19A G28A, the self-cleavage is 0.225.
Regarding C44U G52U, the self-cleavage came to 0.82.
With G50A G54C, the self-cleavage came to 0.628.
Take U37C G80C: the self-cleavage turned out to be 0.288.
Regarding C4A C57G, the self-cleavage came to 0.277.
The figure for C4U C32A is 0.0906.
Consider C41A G73U, for which the self-cleavage amounted to 0.873.
The figure for C21G A51C is 0; for G11C C84G it is 0.831; for G11A G39A it is 0.0936.
Turning to U46C G81A, the self-cleavage amounted to 0.208.
On to U60A A87U, for which the self-cleavage was 0.985.
The figure for G1C A56C is 0.172; for C84A A87U it is 1.02.
U23G C44G: the self-cleavage stood at 0.277.
As to C14U G67C, the self-cleavage was determined as 0.929.
Turning to A51U G67C, the self-cleavage came to 0.78.
For C24U G25A, the self-cleavage stood at 0.181.
As to C62U G74C, the self-cleavage is 0.234.
Consider G1C U69A, for which the self-cleavage is 0.0875.
As for C63G U72G, the self-cleavage was found to be 0.192.
The same measure for G34A G76C: 0.217; for G39U C44A: 0.0627.
Regarding G11U C33A, the self-cleavage stood at 0.0604.
Take G34C C57U: the self-cleavage came to 0.188.
The same measure for G5A G11U: 0.0665; for C4G C33U: 0.123; for G5C C64A: 0.178.
Regarding C21G G67A, the self-cleavage stood at 0.
In the case of A8G C66U, the self-cleavage amounted to 1.14.
C4U C15G: the self-cleavage came to 0.262.
In the case of U9C G39A, the self-cleavage turned out to be 0.567.
For the variant G40A G74C, the self-cleavage was 0.485.
On to G35A C86U, for which the self-cleavage was determined as 0.712.
For A51G C57G, the self-cleavage was 0.916.
Regarding U47C C84A, the self-cleavage was 0.554.
In the case of C36G G76U, the self-cleavage was determined as 0.277.
For C36G G76A, the self-cleavage came out at 0.162.
Consider U47C G59U, for which the self-cleavage stood at 0.95.
As to G55U A70C, the self-cleavage was 0.997.
U27A C75G: the self-cleavage was 0.095.
With U27A U47C, the self-cleavage turned out to be 0.391.
With C57G G67C, the self-cleavage is 0.923.
For U27C U72C, the self-cleavage came out at 0.166.
Take G53A G80A: the self-cleavage was 0.218.
In the case of C36A A42G, the self-cleavage turned out to be 0.113.
G55C G76U: the self-cleavage worked out at 1.06.
Consider C62G C84U, for which the self-cleavage turned out to be 0.846.
